# According to patent US20250269047A1 (MABWELL SHANGHAI BIOSCIENCE, published 2025):
# B1: hz17A3-5 (antibody, human IgG1, kappa, V domains shown)
# VH: EVQLVQSGAEVKKPGASVKVSCKASGYTFTDYALHWVRQAPGQGLEWMGLINTYSSNTNYNQKFKDRVTMTRDTSISTAYMELSRLRSEDTAVYYCARGITAVVGTRYYAMDYWGQGTLVTVSS
# VL: EIVLTQSPGTLSLSPGERATLSCRASQSISNNLHWYQQKPGQAPRLLIKYTSQNISGIPDRFSGSGSGTDFTLTISRLEPEDFAVYYCQQSYSWPLTFGGGTKVEIKR
# notes: hz17A3_VH3 + hz17A3_VL3; human IgG1, kappa
# B2: hz17A3-1 (antibody, human IgG1, kappa, V domains shown)
# VH: QVQLVQSGAEVKKPGASVKVSCKASGYTFTDYALHWVRQAPGQGLEWMGLINTYSSNTNYNQKFKDRVTMTRDTSISTAYMELSRLRSDDTAVYYCARGITAVVGTRYYAMDYWGQGTLVTVSS
# VL: EIVLTQSPGTLSLSPGERATLSCRASQSISNNLHWYQQKPGQAPRLLIYYTSQNISGIPDRFSGSGSGTDFTLTISRLEPEDFAVYYCQQSYSWPLTFGGGTKVEIKR
# notes: hz17A3_VH1 + hz17A3_VL1; human IgG1, kappa
# B3: hz17A3-6 (antibody, human IgG1, kappa, V domains shown)
# VH: EVQLVQSGAEVKKPGASVKVSCKASGYTFTDYALHWVRQAPGQGLEWMGLISTYSSNTNYNQKFKDRVTMTRDTSISTAYMELSRLRSEDTAVYYCARGITAVVGTRYYAMDYWGQGTLVTVSS
# VL: EIVLTQSPGTLSLSPGERATLSCRASQSISNNLHWYQQKPGQAPRLLIKYTSQNISGIPDRFSGSGSGTDFTLTISRLEPEDFAVYYCQQSYSWPLTFGGGTKVEIKR
# notes: hz17A3_VH4 + hz17A3_VL3; human IgG1, kappa
# B4: hz17A3-7 (antibody, human IgG1, kappa, V domains shown)
# VH: EVQLVQSGAEVKKPGASVKVSCKASGYTFTDYALHWVRQAPGQGLEWMGLINTYSSSTNYNQKFKDRVTMTRDTSISTAYMELSRLRSEDTAVYYCARGITAVVGTRYYAMDYWGQGTLVTVSS
# VL: EIVLTQSPGTLSLSPGERATLSCRASQSISNNLHWYQQKPGQAPRLLIKYTSQNISGIPDRFSGSGSGTDFTLTISRLEPEDFAVYYCQQSYSWPLTFGGGTKVEIKR
# notes: hz17A3_VH5 + hz17A3_VL3; human IgG1, kappa
# B5: hz17A3-2 (antibody, human IgG1, kappa, V domains shown)
# VH: QVQLVQSGAEVKKPGASVKVSCKASGYTFTDYALHWVRQAPGQGLEWIGLINTYSSNTNYNQKFKDRVTMTRDTSISTAYMELSRLRSDDTAVYYCARGITAVVGTRYYAMDYWGQGTLVTVSS
# VL: EIVLTQSPGTLSLSPGERATLSCRASQSISNNLHWYQQKPGQAPRLLIYYTSQNISGIPDRFSGSGSGTDFTLTISRLEPEDFAVYYCQQSYSWPLTFGGGTKVEIKR
# notes: hz17A3_VH2 + hz17A3_VL1; human IgG1, kappa
# B6: hz10B4-8 (antibody, human IgG1, kappa)
# heavy: not shown
# light: DIQLTQSPSSLSASVGDRVTMTCSASSSVSYMHWYQQKPGKAPKLLIYDTSKLASGVPSRFSGSGSGTDFTLTISSLQPEDFATYYCQQWSSNPLTFGGGTKVEIKRTVAAPSVFIFPPSDEQLKSGTASVVCLLNNFYPREAKVQWKVDNALQSGNSQESVTEQDSKDSTYSLSSTLTLSKADYEKHKVYACEVTHQGLSSPVTKSFNRGEC
# notes: hz10B4_VH4 + hz10B4_VL2; human IgG1, kappa
# B7: hz10B4-5 (antibody, human IgG1, kappa)
# heavy: not shown
# light: DIQLTQSPSSLSASVGDRVTMTCSASSSVSYMHWYQQKPGKAPKLLIYDTSKLASGVPSRFSGSGSGTDFTLTISSLQPEDFATYYCQQWSSNPLTFGGGTKVEIKRTVAAPSVFIFPPSDEQLKSGTASVVCLLNNFYPREAKVQWKVDNALQSGNSQESVTEQDSKDSTYSLSSTLTLSKADYEKHKVYACEVTHQGLSSPVTKSFNRGEC
# notes: hz10B4_VH1 + hz10B4_VL2; human IgG1, kappa
# B8: hz10B4-10 (antibody, human IgG1, kappa, V domains shown)
# VH: EVQLVQSGAEVKKPGASVKVSCKASGYTFTEYIMHWVRQAPGQGLEWMGGINPASGGTTYNQKFKGRVTMTRDTSISTAYMELSRLRSEDTAVYYCARKGKDYFDWYFDVWGQGTTVTVSS
# VL: DIQLTQSPSSLSASVGDRVTMTCSASSSVSYMHWYQQKPGKAPKLLIYDTSKLASGVPSRFSGSGSGTDFTLTISSLQPEDFATYYCQQWSASPLTFGGGTKVEIKR
# notes: hz10B4_VH3 + hz10B4_VL4; human IgG1, kappa
# B9: hz10B4-6 (antibody, human IgG1, kappa)
# heavy: not shown
# light: DIQLTQSPSSLSASVGDRVTMTCSASSSVSYMHWYQQKPGKAPKLLIYDTSKLASGVPSRFSGSGSGTDFTLTISSLQPEDFATYYCQQWSSNPLTFGGGTKVEIKRTVAAPSVFIFPPSDEQLKSGTASVVCLLNNFYPREAKVQWKVDNALQSGNSQESVTEQDSKDSTYSLSSTLTLSKADYEKHKVYACEVTHQGLSSPVTKSFNRGEC
# notes: hz10B4_VH2 + hz10B4_VL2; human IgG1, kappa
# B10: hz10B4-14 (antibody, human IgG1, kappa, V domains shown)
# VH: EVQLVQSGAEVKKPGASVKVSCKASGYTFTEYIMHWVRQAPGQGLEWMGGINPNQGGTTYNQKFKGRVTMTRDTSISTAYMELSRLRSEDTAVYYCARKGKDYFDWYFDVWGQGTTVTVSS
# VL: DIQLTQSPSSLSASVGDRVTMTCSASSSVSYMHWYQQKPGKAPKLLIYDTSKLASGVPSRFSGSGSGTDFTLTISSLQPEDFATYYCQQWSSQPLTFGGGTKVEIKR
# notes: hz10B4_VH4 + hz10B4_VL5; human IgG1, kappa
# B11: hz10B4-12 (antibody, human IgG1, kappa, V domains shown)
# VH: EVQLVQSGAEVKKPGASVKVSCKASGYTFTEYIMHWVRQAPGQGLEWMGGINPNQGGTTYNQKFKGRVTMTRDTSISTAYMELSRLRSEDTAVYYCARKGKDYFDWYFDVWGQGTTVTVSS
# VL: DIQLTQSPSSLSASVGDRVTMTCSASSSVSYMHWYQQKPGKAPKLLIYDTSKLASGVPSRFSGSGSGTDFTLTISSLQPEDFATYYCQQWSSAPLTFGGGTKVEIKR
# notes: hz10B4_VH4 + hz10B4_VL3; human IgG1, kappa
# B12: hz10B4-13 (antibody, human IgG1, kappa, V domains shown)
# VH: EVQLVQSGAEVKKPGASVKVSCKASGYTFTEYIMHWVRQAPGQGLEWMGGINPNQGGTTYNQKFKGRVTMTRDTSISTAYMELSRLRSEDTAVYYCARKGKDYFDWYFDVWGQGTTVTVSS
# VL: DIQLTQSPSSLSASVGDRVTMTCSASSSVSYMHWYQQKPGKAPKLLIYDTSKLASGVPSRFSGSGSGTDFTLTISSLQPEDFATYYCQQWSASPLTFGGGTKVEIKR
# notes: hz10B4_VH4 + hz10B4_VL4; human IgG1, kappa
# B13: hz10B4-3 (antibody, human IgG1, kappa)
# heavy: not shown
# light: DIQMTQSPSSLSASVGDRVTMTCSASSSVSYMHWYQQKPGKAPKLLIYDTSKLASGVPSRFSGSGSGTDFTLTISSLQPEDFATYYCQQWSSNPLTFGGGTKVEIKRTVAAPSVFIFPPSDEQLKSGTASVVCLLNNFYPREAKVQWKVDNALQSGNSQESVTEQDSKDSTYSLSSTLTLSKADYEKHKVYACEVTHQGLSSPVTKSFNRGEC
# notes: hz10B4_VH3 + hz10B4_VL1; human IgG1, kappa
# B14: hz10B4-11 (antibody, human IgG1, kappa, V domains shown)
# VH: EVQLVQSGAEVKKPGASVKVSCKASGYTFTEYIMHWVRQAPGQGLEWMGGINPASGGTTYNQKFKGRVTMTRDTSISTAYMELSRLRSEDTAVYYCARKGKDYFDWYFDVWGQGTTVTVSS
# VL: DIQLTQSPSSLSASVGDRVTMTCSASSSVSYMHWYQQKPGKAPKLLIYDTSKLASGVPSRFSGSGSGTDFTLTISSLQPEDFATYYCQQWSSQPLTFGGGTKVEIKR
# notes: hz10B4_VH3 + hz10B4_VL5; human IgG1, kappa
# B15: hz10B4-4 (antibody, human IgG1, kappa)
# heavy: not shown
# light: DIQMTQSPSSLSASVGDRVTMTCSASSSVSYMHWYQQKPGKAPKLLIYDTSKLASGVPSRFSGSGSGTDFTLTISSLQPEDFATYYCQQWSSNPLTFGGGTKVEIKRTVAAPSVFIFPPSDEQLKSGTASVVCLLNNFYPREAKVQWKVDNALQSGNSQESVTEQDSKDSTYSLSSTLTLSKADYEKHKVYACEVTHQGLSSPVTKSFNRGEC
# notes: hz10B4_VH4 + hz10B4_VL1; human IgG1, kappa
# B16: hz10B4-2 (antibody, human IgG1, kappa)
# heavy: not shown
# light: DIQMTQSPSSLSASVGDRVTMTCSASSSVSYMHWYQQKPGKAPKLLIYDTSKLASGVPSRFSGSGSGTDFTLTISSLQPEDFATYYCQQWSSNPLTFGGGTKVEIKRTVAAPSVFIFPPSDEQLKSGTASVVCLLNNFYPREAKVQWKVDNALQSGNSQESVTEQDSKDSTYSLSSTLTLSKADYEKHKVYACEVTHQGLSSPVTKSFNRGEC
# notes: hz10B4_VH2 + hz10B4_VL1; human IgG1, kappa
# B17: hz10B4-1 (antibody, human IgG1, kappa)
# heavy: not shown
# light: DIQMTQSPSSLSASVGDRVTMTCSASSSVSYMHWYQQKPGKAPKLLIYDTSKLASGVPSRFSGSGSGTDFTLTISSLQPEDFATYYCQQWSSNPLTFGGGTKVEIKRTVAAPSVFIFPPSDEQLKSGTASVVCLLNNFYPREAKVQWKVDNALQSGNSQESVTEQDSKDSTYSLSSTLTLSKADYEKHKVYACEVTHQGLSSPVTKSFNRGEC
# notes: hz10B4_VH1 + hz10B4_VL1; human IgG1, kappa
# B18: hz10B4-9 (antibody, human IgG1, kappa, V domains shown)
# VH: EVQLVQSGAEVKKPGASVKVSCKASGYTFTEYIMHWVRQAPGQGLEWMGGINPASGGTTYNQKFKGRVTMTRDTSISTAYMELSRLRSEDTAVYYCARKGKDYFDWYFDVWGQGTTVTVSS
# VL: DIQLTQSPSSLSASVGDRVTMTCSASSSVSYMHWYQQKPGKAPKLLIYDTSKLASGVPSRFSGSGSGTDFTLTISSLQPEDFATYYCQQWSSAPLTFGGGTKVEIKR
# notes: hz10B4_VH3 + hz10B4_VL3; human IgG1, kappa
# Molecular target: T1, recombinant human B7-H3-his extracellular domain protein (UniProtKB-Q5ZPR3, 1 aa-461 aa) (human, UniProt Q5ZPR3 29-461)
# T1 construct: range 1-461; The printed range 1-461 starts at residue 1 and so includes the signal peptide; also called Human B7-H3 ECD; recombinant human B7-H3-his protein; not shown: C-terminal his tag
# T1 sequence (looked up): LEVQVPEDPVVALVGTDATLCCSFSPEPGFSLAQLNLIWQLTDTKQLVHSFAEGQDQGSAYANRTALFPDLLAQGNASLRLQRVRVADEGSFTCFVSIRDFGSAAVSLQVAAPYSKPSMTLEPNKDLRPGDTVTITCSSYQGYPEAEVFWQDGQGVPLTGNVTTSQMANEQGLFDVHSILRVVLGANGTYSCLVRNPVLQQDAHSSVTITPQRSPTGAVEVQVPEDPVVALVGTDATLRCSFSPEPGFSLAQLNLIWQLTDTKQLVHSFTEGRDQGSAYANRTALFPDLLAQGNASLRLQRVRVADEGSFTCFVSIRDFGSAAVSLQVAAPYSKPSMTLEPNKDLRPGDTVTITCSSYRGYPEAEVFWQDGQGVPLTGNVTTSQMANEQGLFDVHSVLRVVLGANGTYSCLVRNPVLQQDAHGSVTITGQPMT
# Experiment: BLI (Octet QKe), antibody on AHC biosensor, B7-H3-his 60 nM in solution
# Method: According to the mutation designs, site-directed mutagenesis was performed in the plasmids expressing the humanized light chains and heavy chains respectively using StarMut gene Site-directed Mutagenesis Kit (Cat.: T111-01, GenStar). The mutated plasmids were transformed into E. coli cells for expansion, and plasmids expressing the humanized and mutated light and heavy chains based on the antibodies 9B11, 10B4, and 17A3 were obtained. […] 5-6 days after cell transfection, culture supernatants were purified through ProA affinity chromatography column to obtain different humanized antibodies. Affinities of the antibodies were determined by an assay including capturing Fc fragments of the antibodies with anti-human IgG Fc capture (AHC) biosensors using Octet QKe system instrument from Fortebio. For the assay, each of the humanized antibodies and the chimeric antibodies based on the antibodies 9B11, 10B4, and 17A3 was diluted to 4 μg/ml in PBS, and was allowed to flow through the surface of an AHC biosensor (Cat.: 18-0015, PALL) for 300 s. Recombinant human B7-H3-his protein (Accession No.: UniProtKB-Q5ZPR3, 1 aa-461 aa) was used as a mobile phase, and its concentration was 60 nM. The association time was 100 s and the dissociation time was 300 s. When the assay was finished, data from which the response values of blank control had been deducted were fitted to a 1:1 Langmuir binding model using software, and then kinetic constants for antigen-antibody binding were calculated. The light and heavy chain combinations and the affinity constant KD values of the humanized and the mutant antibodies based on the antibodies 9B11, 10B4, and 17A3 are shown in Tables 6-8 respectively.
row,Binder,Kd [nM]
1,B1,0.258
2,B2,0.541
3,B3,0.401
4,B4,0.422
5,B5,0.771
6,B6,0.211
7,B7,0.998
8,B8,0.381
9,B9,0.131
10,B10,0.523
11,B11,0.332
12,B12,0.351
13,B13,0.341
14,B14,0.422
15,B15,0.501
16,B16,0.177
17,B17,0.827
18,B18,0.352
